According to the supplement of paper PMC10724198:
± gives the standard deviation of the averaged measurements.

system: Saccharomyces cerevisiae; test: protein stability index of tFT-peptide fusion (C-terminal peptide) (PSI (0-1 scale)); higher = more stable (slower turnover); details: genetic background: das1 deletion; temperature: 30 C
Description: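 MPS profiling in S. cerevisiae of the yeast C-terminome library: the last 12 aa of each annotated ORF are fused to the C-terminus of a sfGFP-mCherry timer, after a GGGS linker. Cells are FACS-sorted into 8 mCherry/sfGFP bins and deep-sequenced. PSI runs from 0 (unstable) to 1 (stable); wild type and das1Δ backgrounds, two technical replicates each.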

Row | Sequence | protein stability index
1 | RIPKELTGTVRF [GAT4 C-terminal 12 aa] | 0.705 ± 0.018
2 | RITRLSSMTYTY [YPS5 C-terminal 12 aa] | 0.711 ± 0.038
3 | RKQAHELRPKSE [SPO7 C-terminal 12 aa] | 0.77 ± 0.024
4 | RKSHERPDDVSV [SUR7 C-terminal 12 aa] | 0.692 ± 0.018
5 | RKSTRSDNPHEA [CBF1 C-terminal 12 aa] | 0.6989 ± 0.0016
6 | RLDRHFEKKKKV [RDS3 C-terminal 12 aa] | 0.704 ± 0.023
7 | RLEQGSNGFMFA [NAM8 C-terminal 12 aa] | 0.702 ± 0.026
8 | RLGASNSSNNDA [SLY1 C-terminal 12 aa] | 0.702 ± 0.022
9 | RLRKWLSTFVHQ [YNL034W C-terminal 12 aa] | 0.756 ± 0.045
10 | RMYTRHKTSFPL [YAL042C-A C-terminal 12 aa] | 0.711 ± 0.02
11 | RNSGEKLVAVLK [YNL134C C-terminal 12 aa] | 0.691 ± 0.0088
12 | RNSPSYTGDHKT [YOR072W-A C-terminal 12 aa] | 0.722 ± 0.02
13 | RNWLGFCTKYEL [ATG15 C-terminal 12 aa] | 0.741 ± 0.021
14 | RPDSTAPSNENQ [PEP1 C-terminal 12 aa] | 0.7262 ± 0.00093
15 | RPFEIASFRLYF [AMS1 C-terminal 12 aa] | 0.703 ± 0.026
16 | RQYAGCKVNVGK [NUS1 C-terminal 12 aa] | 0.707 ± 0.015
17 | RRIIESINKSQG [HAT1 C-terminal 12 aa] | 0.659 ± 0.012
18 | RRLEMEIANLQE [SPC34 C-terminal 12 aa] | 0.726 ± 0.036
19 | RRQSLPKRFPLI [YAR035C-A C-terminal 12 aa] | 0.717 ± 0.014
20 | RSLLRKSKPLQA [RPM2 C-terminal 12 aa] | 0.675 ± 0.024
21 | RSPKKKKNYHKR [NUR1 C-terminal 12 aa] | 0.74 ± 0.061

Row | Sequence | protein stability index
22 | RTGSQSPPSSSQ [MED7 C-terminal 12 aa] | 0.707 ± 0.022
23 | RVPQSRSFGNLR [NUM1 C-terminal 12 aa] | 0.738 ± 0.012
24 | RVSRMRAKRKYQ [YOR300W C-terminal 12 aa] | 0.712 ± 0.034
25 | RYAHIGGLHQRT [PRR2 C-terminal 12 aa] | 0.709 ± 0.01
26 | RYIRHLQQNVST [PHO4 C-terminal 12 aa] | 0.688 ± 0.016
27 | RYIYAYINAQVQ [YHL005C C-terminal 12 aa] | 0.502 ± 0.03
28 | SDDDDYDEVANQ [UBC8 C-terminal 12 aa] | 0.689 ± 0.031
29 | SDLNVLLQIKHS [YNL228W C-terminal 12 aa] | 0.7201 ± 0.00055
30 | SEEEEEEEWKGF [RRP1 C-terminal 12 aa] | 0.68 ± 0.011
31 | SEKIYRRSLFKQ [YKL165C-A C-terminal 12 aa] | 0.708 ± 0.03
32 | SEYRRKQQEKKD [YPI1 C-terminal 12 aa] | 0.722 ± 0.019
33 | SFGIGSKVFSSM [YHR063W-A C-terminal 12 aa] | 0.711 ± 0.021
34 | SFTKSRIHLEFT [SPC105 C-terminal 12 aa] | 0.706 ± 0.024
35 | SFWPHVAGELEY [INM2 C-terminal 12 aa] | 0.72 ± 0.014
36 | SGGVLDSGDVSL [YGR182C C-terminal 12 aa] | 0.684 ± 0.022
37 | SHAALGNETNSL [YHR052C-B C-terminal 12 aa] | 0.6826 ± 0.0062
38 | SIIDKELENIDS [SGD1 C-terminal 12 aa] | 0.731 ± 0.027
39 | SKGAQKRKNAKK [SHR3 C-terminal 12 aa] | 0.682 ± 0.009
40 | SKKDYSIDSVEM [TPO2 C-terminal 12 aa] | 0.698 ± 0.0055
41 | SKRVYSICHYEF [ABM1 C-terminal 12 aa] | 0.693 ± 0.018
42 | SKVNSTRLVSRK [KAR3 C-terminal 12 aa] | 0.6908 ± 0.0058

Row | Sequence | protein stability index
43 | SLEHFIDSVSSL [TRP4 C-terminal 12 aa] | 0.7199 ± 0.0016
44 | SLIDAKTGLPKE [MVD1 C-terminal 12 aa] | 0.6964 ± 0.004
45 | SLVKTHNSSLCK [IAI11 C-terminal 12 aa] | 0.663 ± 0.026
46 | SNYGGNSTWGGH [SPT5 C-terminal 12 aa] | 0.732 ± 0.11
47 | SPELHTYETIYD [ROY1 C-terminal 12 aa] | 0.752 ± 0.0093
48 | SPEQLKVSLKWH [SKM1 C-terminal 12 aa] | 0.718 ± 0.01
49 | SPGEYEIGDMEN [YDR061W C-terminal 12 aa] | 0.675 ± 0.016
50 | SPVPTKKKGFLR [CDC3 C-terminal 12 aa] | 0.705 ± 0.017
51 | SQLPSLYAPSYY [SSU72 C-terminal 12 aa] | 0.703 ± 0.02
52 | SQTKSKQTLFTI [YPR142C C-terminal 12 aa] | 0.722 ± 0.021
53 | SQTQAGSAYYTK [YOR268C C-terminal 12 aa] | 0.699 ± 0.026
54 | SRGQNTHPSVDK [ESC1 C-terminal 12 aa] | 0.699 ± 0.012
55 | SRIYQTFTDPSN [ADY4 C-terminal 12 aa] | 0.729 ± 0.024
56 | SRKHTTRSGGRW [HOS3 C-terminal 12 aa] | 0.695 ± 0.017
57 | SSAHMSSNAIQR [CDC10 C-terminal 12 aa] | 0.7077 ± 0.0023
58 | SSESEAVKKAKS [CIC1 C-terminal 12 aa] | 0.668 ± 0.031
59 | SSKKTIQEEIYI [DPB2 C-terminal 12 aa] | 0.698 ± 0.015
60 | SSLARPSLFSSE [YBL077W C-terminal 12 aa] | 0.735 ± 0.026
61 | SSNEDKKGMCKL [IDP3 C-terminal 12 aa] | 0.736 ± 0.048
62 | SSNTVYDNILVT [YDR034C-A C-terminal 12 aa] | 0.721 ± 0.037
63 | SSSEQITSSITS [YAR062W C-terminal 12 aa] | 0.71 ± 0.025

Row | Sequence | protein stability index
64 | SSTDMNGQPIEF [SKA1 C-terminal 12 aa] | 0.6884 ± 0.0061
65 | SSVRTLDSNIWR [ISC10 C-terminal 12 aa] | 0.7128 ± 0.0013
66 | SSVVSRVSRSCR [YAR060C C-terminal 12 aa] | 0.7343 ± 0.0019
67 | SSWISKHSSVTD [YDL109C C-terminal 12 aa] | 0.696 ± 0.0068
68 | STKFLRSFGQTI [SWP1 C-terminal 12 aa] | 0.70697 ± 0.0003
69 | STKTVPLNFLFL [YDL050C C-terminal 12 aa] | 0.724 ± 0.01
70 | STMQERFAESTD [VMA1 C-terminal 12 aa] | 0.682 ± 0.011
71 | SVENIFMIWFFY [YJL022W C-terminal 12 aa] | 0.5089 ± 0.0034
72 | SVHPLIISYSQL [TRM732 C-terminal 12 aa] | 0.716 ± 0.05
73 | SVVSQPPPGYEQ [HSE1 C-terminal 12 aa] | 0.7102 ± 0.0066
74 | SVYQPFFALCGL [YDR355C C-terminal 12 aa] | 0.6756 ± 0.0066
75 | SYRLGKNAAEGK [CAP1 C-terminal 12 aa] | 0.685 ± 0.017
76 | TAPLGKALHDLS [REE1 C-terminal 12 aa] | 0.687 ± 0.059
77 | TASQILKFEGRI [GRE2 C-terminal 12 aa] | 0.718 ± 0.035
78 | TEAMNSEIDGTK [ATG16 C-terminal 12 aa] | 0.686 ± 0.017
79 | TFELVMRFLGEE [YMC2 C-terminal 12 aa] | 0.709 ± 0.0094
80 | TFQKAQVEAEWV [TOA1 C-terminal 12 aa] | 0.70901 ± 0.00064
81 | TFTLAVTPYPAF [YLL066W-B C-terminal 12 aa] | 0.715 ± 0.013
82 | TGNGPNLDNLKY [ARA1 C-terminal 12 aa] | 0.722 ± 0.0074
